Measured values taken from publication PMC5635807, “Identification of Trombospondin-1 as a Novel Amelogenin Interactor by Functional Proteomics” (Frontiers in Chemistry, 2017).

Target: T1, Thrombospondin-1 (Abnova) (UniProt P07996 19-1170)
T1 construct: Thrombospondin-1 bought from Abnova; No catalogue number is printed; the product may be a partial or tagged recombinant protein; also called TSP-1; free TSP-1; source: bought: Abnova
Assay: SPR; Biacore 3000; AMEL-2 immobilised on a CM5 chip by amine coupling (10,000 RU); running buffer 10 mM Na2HPO4, 150 mM NaCl, pH 7.4; analytes injected at 10 μl/min for 3 min, dissociation 600 s, no regeneration; 1:1 Langmuir model
Conditions: both partners purified

T1 sequence (P07996 19-1170): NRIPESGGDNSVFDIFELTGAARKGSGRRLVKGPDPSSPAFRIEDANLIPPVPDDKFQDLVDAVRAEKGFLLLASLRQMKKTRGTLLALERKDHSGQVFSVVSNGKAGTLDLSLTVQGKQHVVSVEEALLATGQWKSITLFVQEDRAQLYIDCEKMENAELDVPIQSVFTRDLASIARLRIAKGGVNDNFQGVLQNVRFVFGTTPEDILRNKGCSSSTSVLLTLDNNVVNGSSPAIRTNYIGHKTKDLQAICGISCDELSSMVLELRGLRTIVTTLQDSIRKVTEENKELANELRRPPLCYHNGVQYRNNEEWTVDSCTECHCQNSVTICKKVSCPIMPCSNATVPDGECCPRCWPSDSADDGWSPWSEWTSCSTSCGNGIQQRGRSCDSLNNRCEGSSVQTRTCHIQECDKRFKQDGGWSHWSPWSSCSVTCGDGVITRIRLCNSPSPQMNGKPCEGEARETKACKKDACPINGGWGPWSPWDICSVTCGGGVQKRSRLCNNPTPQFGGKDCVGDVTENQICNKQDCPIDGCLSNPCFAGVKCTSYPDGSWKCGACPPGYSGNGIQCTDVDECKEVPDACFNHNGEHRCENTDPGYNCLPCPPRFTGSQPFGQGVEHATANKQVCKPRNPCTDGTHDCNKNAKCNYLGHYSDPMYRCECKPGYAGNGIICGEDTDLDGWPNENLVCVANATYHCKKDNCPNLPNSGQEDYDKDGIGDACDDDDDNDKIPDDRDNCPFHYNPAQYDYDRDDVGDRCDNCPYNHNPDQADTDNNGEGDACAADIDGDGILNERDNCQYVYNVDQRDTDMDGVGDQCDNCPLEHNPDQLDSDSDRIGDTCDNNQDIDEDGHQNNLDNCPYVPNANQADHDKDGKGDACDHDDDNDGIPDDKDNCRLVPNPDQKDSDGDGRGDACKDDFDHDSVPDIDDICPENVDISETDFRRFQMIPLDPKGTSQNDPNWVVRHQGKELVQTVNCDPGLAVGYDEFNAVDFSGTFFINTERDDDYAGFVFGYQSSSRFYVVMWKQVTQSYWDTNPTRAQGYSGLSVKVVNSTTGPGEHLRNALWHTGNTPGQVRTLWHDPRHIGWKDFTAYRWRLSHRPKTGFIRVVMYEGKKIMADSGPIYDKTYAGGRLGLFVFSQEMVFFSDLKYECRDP

- Kd: 878 ± 125 nM
B1: human amelogenin isoform 2 (AMELX isoform II), recombinant (natural protein)
chain: MGTWILFACLLGAAFAMPVLTPLKWYQSIRPPYPSYGYEPMGGWLHHQIIPVLSQQHPPTHTLQPHHHIPVVPAQQPVIPQQPMMPVPGQHSMTPIQHHQPNLPPPAQQPYQPQPVQPQPHQPMQPQPPVHPMQPLPPQPPLPPMFPMQPLPPMLPDLTLEAWPSTDKTKREEVD
